# Experimental data published in article PMC9482650, “Quantitative fragmentomics allow affinity mapping of interactomes” (Nature Communications, 2022).
# T1: GRIP1_7, Q9Y3R0
# T1 sequence (Q9Y3R0 999-1096, limits assumed, looked up): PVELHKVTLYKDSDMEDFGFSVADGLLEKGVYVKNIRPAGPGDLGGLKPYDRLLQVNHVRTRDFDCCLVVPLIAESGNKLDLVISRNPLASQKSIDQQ
# T2: LNX2_3, Q8N448
# T2 sequence (Q8N448 463-564, limits assumed, looked up): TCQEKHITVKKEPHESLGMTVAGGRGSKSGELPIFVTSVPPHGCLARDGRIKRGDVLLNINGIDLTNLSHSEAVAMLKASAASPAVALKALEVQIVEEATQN
# T3: LIN7C, Q9NUP9
# T3 sequence (Q9NUP9 88-185, limits assumed, looked up): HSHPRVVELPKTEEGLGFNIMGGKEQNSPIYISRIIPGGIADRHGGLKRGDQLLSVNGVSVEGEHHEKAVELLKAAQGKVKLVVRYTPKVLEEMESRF
# T4: TX1BP3, O14907
# T4 sequence (O14907 10-122, limits assumed, looked up): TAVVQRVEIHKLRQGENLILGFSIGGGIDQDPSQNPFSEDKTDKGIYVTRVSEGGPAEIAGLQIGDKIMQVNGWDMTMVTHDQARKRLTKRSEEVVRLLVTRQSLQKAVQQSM
# T5: HTRA3, P83110
# T5 sequence (P83110 354-453, limits assumed, looked up): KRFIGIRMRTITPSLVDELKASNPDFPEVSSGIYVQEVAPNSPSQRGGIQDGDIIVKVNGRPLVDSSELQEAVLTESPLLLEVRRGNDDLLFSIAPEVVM
# T6: SNTA1, Q13424
# T6 sequence (Q13424 82-180, limits assumed, looked up): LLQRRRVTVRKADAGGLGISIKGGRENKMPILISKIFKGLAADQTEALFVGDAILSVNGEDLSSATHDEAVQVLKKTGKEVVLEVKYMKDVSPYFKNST
# T7: MPDZ_5, O75970
# T7 sequence (O75970 695-796, limits assumed, looked up): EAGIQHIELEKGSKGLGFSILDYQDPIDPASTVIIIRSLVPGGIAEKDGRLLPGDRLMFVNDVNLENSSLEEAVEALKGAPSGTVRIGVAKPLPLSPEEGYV
# T8: DFNB31_1, Q9P202
# T8 sequence (Q9P202 135-233, limits assumed, looked up): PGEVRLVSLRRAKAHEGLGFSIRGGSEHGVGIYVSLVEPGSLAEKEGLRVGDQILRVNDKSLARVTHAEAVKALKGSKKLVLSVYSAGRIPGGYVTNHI
# T9: PARD3B_1, Q8TEW8
# T9 sequence (Q8TEW8 196-299, limits assumed, looked up): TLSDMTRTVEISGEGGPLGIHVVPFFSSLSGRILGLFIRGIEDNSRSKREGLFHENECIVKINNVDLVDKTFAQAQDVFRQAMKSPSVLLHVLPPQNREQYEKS
# T10: ARHGAP21, Q5T5U3
# T10 sequence (Q5T5U3 45-169, limits assumed, looked up): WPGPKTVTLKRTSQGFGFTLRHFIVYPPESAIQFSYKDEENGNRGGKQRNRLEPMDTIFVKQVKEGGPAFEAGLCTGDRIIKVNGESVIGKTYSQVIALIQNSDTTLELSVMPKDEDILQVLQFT
# T11: PDZD2_2, O15018
# T11 sequence (O15018 329-429, limits assumed, looked up): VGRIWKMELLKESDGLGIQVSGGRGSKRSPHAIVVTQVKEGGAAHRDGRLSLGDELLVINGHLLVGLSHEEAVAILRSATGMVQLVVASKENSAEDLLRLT
# Key:
# Assay in all cases: holdup assay
# Set-up in all cases: key: below the threshold = too weak to quantify, mostly under pKd 3.1 to 4
# Details in all cases: plain residues with an end cap or a label only (N-terminal biotin on a linker: ado-ado)
# GRIP1_7, Q9Y3R0 = molecular target: T1, GRIP1_7, Q9Y3R0
# LNX2_3, Q8N448 = molecular target: T2, LNX2_3, Q8N448
# LAP2, Q96RT1 = molecular target: LAP2, Q96RT1
# Chain of LAP2, Q96RT1 (Q96RT1 other isoform, or with tags, fused parts or gaps): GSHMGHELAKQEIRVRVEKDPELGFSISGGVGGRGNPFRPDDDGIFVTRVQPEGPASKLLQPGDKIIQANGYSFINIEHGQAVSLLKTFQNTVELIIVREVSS
# TJP1_2, Q07157 = molecular target: TJP1_2, Q07157
# Chain of TJP1_2, Q07157 (Q07157 181-274): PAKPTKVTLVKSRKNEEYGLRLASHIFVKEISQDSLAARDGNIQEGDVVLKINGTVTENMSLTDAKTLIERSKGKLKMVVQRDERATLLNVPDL
# LIN7C, Q9NUP9 = molecular target: T3, LIN7C, Q9NUP9
# GIPC2, Q8TF65 = molecular target: GIPC2, Q8TF65
# Chain of GIPC2, Q8TF65 (Q8TF65 112-203): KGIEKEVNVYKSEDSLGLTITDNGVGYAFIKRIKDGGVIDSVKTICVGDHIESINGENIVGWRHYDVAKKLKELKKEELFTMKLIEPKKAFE
# Inadl_5, Q8NI35 = molecular target: Inadl_5, Q8NI35
# Chain of Inadl_5, Q8NI35 (Q8NI35 673-780): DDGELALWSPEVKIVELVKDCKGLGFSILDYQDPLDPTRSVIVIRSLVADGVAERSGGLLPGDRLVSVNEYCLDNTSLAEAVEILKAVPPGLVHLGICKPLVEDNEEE
# TX1BP3, O14907 = molecular target: T4, TX1BP3, O14907
# NHERF2_2, Q15599 = molecular target: NHERF2_2, Q15599
# Chain of NHERF2_2, Q15599 (Q15599 142-238): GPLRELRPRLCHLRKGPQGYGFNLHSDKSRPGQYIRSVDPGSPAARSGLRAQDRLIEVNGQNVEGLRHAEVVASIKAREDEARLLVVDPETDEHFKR
# HTRA3, P83110 = molecular target: T5, HTRA3, P83110
# FRMPD3, Q5JV73 = molecular target: FRMPD3, Q5JV73
# Chain of FRMPD3, Q5JV73 (Q5JV73 12-100): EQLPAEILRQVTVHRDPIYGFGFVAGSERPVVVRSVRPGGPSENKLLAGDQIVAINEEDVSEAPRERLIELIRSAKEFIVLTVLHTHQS
# SNTA1, Q13424 = molecular target: T6, SNTA1, Q13424
# SCRIB_2, Q14160 = molecular target: SCRIB_2, Q14160
# Chain of SCRIB_2, Q14160 (Q14160 857-960): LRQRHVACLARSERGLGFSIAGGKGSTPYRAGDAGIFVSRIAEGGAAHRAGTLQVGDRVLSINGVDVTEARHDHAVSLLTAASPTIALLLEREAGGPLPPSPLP
# Inadl_1, Q8NI35 = molecular target: Inadl_1, Q8NI35
# Chain of Inadl_1, Q8NI35 (Q8NI35 113-229): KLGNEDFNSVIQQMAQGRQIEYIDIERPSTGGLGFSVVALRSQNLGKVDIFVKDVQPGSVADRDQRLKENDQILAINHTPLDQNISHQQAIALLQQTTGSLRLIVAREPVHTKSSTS
# GOPC, Q9HD26 = molecular target: GOPC, Q9HD26
# Inadl_3, Q8NI35 = molecular target: Inadl_3, Q8NI35
# Chain of Inadl_3, Q8NI35 (Q8NI35 359-469): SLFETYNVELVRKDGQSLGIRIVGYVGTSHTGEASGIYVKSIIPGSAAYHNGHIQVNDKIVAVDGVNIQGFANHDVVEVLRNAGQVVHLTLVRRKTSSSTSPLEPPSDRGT
# MPDZ_5, O75970 = molecular target: T7, MPDZ_5, O75970
# DLG2_3, Q15700 = molecular target: DLG2_3, Q15700
# DFNB31_1, Q9P202 = molecular target: T8, DFNB31_1, Q9P202
# PARD3B_1, Q8TEW8 = molecular target: T9, PARD3B_1, Q8TEW8
# FRMPD2_1, Q68DX3 = molecular target: FRMPD2_1, Q68DX3
# Chain of FRMPD2_1, Q68DX3 (Q68DX3 770-861): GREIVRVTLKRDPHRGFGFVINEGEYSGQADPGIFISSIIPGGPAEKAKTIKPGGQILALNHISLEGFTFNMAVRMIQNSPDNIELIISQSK
# ARHGAP21, Q5T5U3 = molecular target: T10, ARHGAP21, Q5T5U3
# PDZD2_2, O15018 = molecular target: T11, PDZD2_2, O15018
# GORASP2, Q9H8Y8 = molecular target: GORASP2, Q9H8Y8
# GRID2IP_2, A4D2P6 = molecular target: GRID2IP_2, A4D2P6
# Chain of GRID2IP_2, A4D2P6 (A4D2P6 272-370): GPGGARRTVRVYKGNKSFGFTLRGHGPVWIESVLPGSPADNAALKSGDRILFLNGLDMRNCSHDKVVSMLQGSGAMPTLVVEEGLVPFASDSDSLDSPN
Binder,"pKd (GRIP1_7, Q9Y3R0)","pKd (LNX2_3, Q8N448)","pKd (LAP2, Q96RT1)","pKd (TJP1_2, Q07157)","pKd (LIN7C, Q9NUP9)","pKd (GIPC2, Q8TF65)","pKd (Inadl_5, Q8NI35)","pKd (TX1BP3, O14907)","pKd (NHERF2_2, Q15599)","pKd (HTRA3, P83110)","pKd (FRMPD3, Q5JV73)","pKd (SNTA1, Q13424)","pKd (SCRIB_2, Q14160)","pKd (Inadl_1, Q8NI35)","pKd (GOPC, Q9HD26)","pKd (Inadl_3, Q8NI35)","pKd (MPDZ_5, O75970)","pKd (DLG2_3, Q15700)","pKd (DFNB31_1, Q9P202)","pKd (PARD3B_1, Q8TEW8)",other results
"NLSIEKETKL [ASNSD1, Q9NWL6]",below the threshold,below the threshold,3.52,below the threshold,4.2,below the threshold,below the threshold,3.53,4.76,below the threshold,below the threshold,4.9,below the threshold,below the threshold,below the threshold,below the threshold,below the threshold,3.77,4.41,3.89,"pKd (FRMPD2_1, Q68DX3): below the threshold; pKd (ARHGAP21, Q5T5U3): below the threshold; pKd (PDZD2_2, O15018): 3.83; pKd (GORASP2, Q9H8Y8): below the threshold; pKd (GRID2IP_2, A4D2P6): 4.26"
"VNKSKLLTDV [KCNA1, Q09470]",below the threshold,below the threshold,below the threshold,below the threshold,below the threshold,below the threshold,below the threshold,4.22,below the threshold,below the threshold,below the threshold,below the threshold,below the threshold,below the threshold,below the threshold,below the threshold,below the threshold,3.57,below the threshold,below the threshold,"pKd (FRMPD2_1, Q68DX3): below the threshold; pKd (ARHGAP21, Q5T5U3): below the threshold; pKd (PDZD2_2, O15018): 4.07; pKd (GORASP2, Q9H8Y8): 3.91; pKd (GRID2IP_2, A4D2P6): 3.71"
"EVNETDDTKM [KCNJ1, P48048]",below the threshold,below the threshold,3.5,below the threshold,below the threshold,below the threshold,below the threshold,4.15,4.84,below the threshold,below the threshold,below the threshold,3.83,3.48,below the threshold,below the threshold,below the threshold,below the threshold,3.69,below the threshold,"pKd (FRMPD2_1, Q68DX3): below the threshold; pKd (ARHGAP21, Q5T5U3): 3.96; pKd (PDZD2_2, O15018): 3.5; pKd (GORASP2, Q9H8Y8): below the threshold; pKd (GRID2IP_2, A4D2P6): below the threshold"
"SSALYGESDL [ACTN2, P35609]",below the threshold,below the threshold,3.96,below the threshold,below the threshold,4.09,below the threshold,4.9,4.35,below the threshold,below the threshold,3.59,4.06,below the threshold,below the threshold,below the threshold,below the threshold,3.94,below the threshold,below the threshold,"pKd (FRMPD2_1, Q68DX3): below the threshold; pKd (ARHGAP21, Q5T5U3): below the threshold; pKd (PDZD2_2, O15018): below the threshold; pKd (GORASP2, Q9H8Y8): below the threshold; pKd (GRID2IP_2, A4D2P6): below the threshold"

# Second part, led by results:
"pKd (GRIP1_7, Q9Y3R0)","pKd (LNX2_3, Q8N448)","pKd (LAP2, Q96RT1)","pKd (TJP1_2, Q07157)","pKd (LIN7C, Q9NUP9)","pKd (GIPC2, Q8TF65)","pKd (Inadl_5, Q8NI35)","pKd (TX1BP3, O14907)","pKd (NHERF2_2, Q15599)","pKd (HTRA3, P83110)","pKd (FRMPD3, Q5JV73)","pKd (SNTA1, Q13424)","pKd (SCRIB_2, Q14160)","pKd (Inadl_1, Q8NI35)","pKd (GOPC, Q9HD26)","pKd (Inadl_3, Q8NI35)","pKd (MPDZ_5, O75970)","pKd (DLG2_3, Q15700)","pKd (DFNB31_1, Q9P202)","pKd (PARD3B_1, Q8TEW8)",Binder,other results
below the threshold,below the threshold,below the threshold,below the threshold,below the threshold,below the threshold,below the threshold,3.69,4.71,below the threshold,below the threshold,3.91,below the threshold,below the threshold,4.83,below the threshold,below the threshold,below the threshold,4.42,4.5,"GQEEQVTTRL [TRPC5, Q9UL62]","pKd (FRMPD2_1, Q68DX3): below the threshold; pKd (ARHGAP21, Q5T5U3): 4.07; pKd (PDZD2_2, O15018): below the threshold; pKd (GORASP2, Q9H8Y8): below the threshold; pKd (GRID2IP_2, A4D2P6): 4.44"
below the threshold,below the threshold,3.69,below the threshold,3.88,below the threshold,below the threshold,below the threshold,3.88,below the threshold,below the threshold,4.77,4.27,below the threshold,3.99,below the threshold,below the threshold,4.17,5.32,below the threshold,"SKENVQETQI [LRRC4B, Q9NT99]","pKd (FRMPD2_1, Q68DX3): below the threshold; pKd (ARHGAP21, Q5T5U3): below the threshold; pKd (PDZD2_2, O15018): 3.97; pKd (GORASP2, Q9H8Y8): below the threshold; pKd (GRID2IP_2, A4D2P6): 3.86"
